Molecular target: canine FcεRIα on the surface of canine mast cell line HMRC cells (canine)
Experiment: flow cytometry, FITC-labelled control on canine mast cell line HMRC

median fluorescence intensity: 1720
Substance: mouse IgG2b isotype control labeled with FITC (antibody)

Source: patent US20230192894A1
